Reference: patent US10633429B2, “Human antibody κ type light chain complex-containing composition and method for producing same” (JAPAN SCIENCE AND TECHNOLOGY AGENCY, priority 2013, dated 2020)
Changes are numbered by the printed parent chain.

Assays:
[1] = tested on: A549 cell line (human alveolar epithelial cancer cell line); assay: Cytotoxicity assay (WST assay), A549 cell line; format: cell-based; settings: Example 6, 24 h, light chain not bound with copper ions set to 100%
Method: (§1) The cytotoxicity of each complex-containing composition to cancer cells was tested using cancer cell lines. As the cancer cell lines, A549 cell line (human alveolar epithelial cancer cell line), ES-2 cell line (human ovarian cancer cell line), MOLT-4 cell line (human acute lymphoblastic leukemia T cell line), BxPC-3 cell line (human pancreatic adenocarcinoma cell line), SNU-1 cell line (human metastatic gastric cancer cell line), and PANC-1 cell line (human pancreatic cancer cell line) were used.
(§2) All of these cell lines were purchased from ATCC (American Type Culture Collection). Here, the A549 cell line was cultured using a 10% FCS (fetal calf serum)-containing F-12K culture medium by a general method, the ES-2 cell line was cultured using a 10% FCS-containing McCoy's 5A culture medium by a general method, each of the MOLT-4 cell line, SNU-1 cell line, and BxPC-3 cell line was cultured using a 10% FCS-containing RPMI-1640 culture medium by a general method, the PANC-1 cell line was cultured using a 10% FCS-containing DMEM culture medium by a general method, and the WI-38 cell line was cultured using a 10% FCS-containing EMEM culture medium by a general method.
(§3) First, after being recovered by thawing the frozen cancer cell lines, the recovered cancer cell lines were seeded in a 96-well plate by 100 μL to be 5×10^3 cells/well (the number of seeds was appropriately adjusted by cell species). After culturing was carried out at 37° C. for 24 hours, a culture medium to be added to the 96-well plate was removed by decantation, and then each complex-containing composition prepared at a concentration of about 1 mg/mL was added to each well by 100 μL. After culturing was carried out for 24 hours or 48 hours from the addition of the complex-containing composition (after cells are planted and cultivated for 48 hours or 72 hours), a WST-1 reagent (manufactured by Roche Inc.) was added to each well by 10 μL and incubated for 1, 1.5, and 2 hours to form a formazan dye, and then the absorbance (Abs at 450 nm) of the formazan dye was measured (WST assay). As a control, a human antibody κ type light chain not bound to metal ions or PBS was added instead of the complex-containing composition and cultured for 24 hours or 48 hours, and then WST assay was carried out. Based on the results of the obtained absorbance, the cell survival rate of the well added with the human antibody κ type light chain not bound to metal ions or the well added with the PBS was set to 100%, and the cell survival rate of each well was determined, so as to evaluate the cytotoxicity of the added complex-containing composition.

[2] = tested on: SNU-1 cell line (human metastatic gastric cancer cell line); assay: Cytotoxicity assay (WST assay), SNU-1 cell line; format: cell-based; settings: 24 h, light chain not bound with copper ions set to 100%
Method: as §1
(§4) All of these cell lines were purchased from ATCC (American Type Culture Collection). […]
(§5) First, after being recovered by thawing the frozen cancer cell lines, the recovered cancer cell lines were seeded in a 96-well plate by 100 μL to be 5×10^3 cells/well (the number of seeds was appropriately adjusted by cell species). […] After culturing was carried out for 24 hours or 48 hours from the addition of the complex-containing composition (after cells are planted and cultivated for 48 hours or 72 hours), a WST-1 reagent (manufactured by Roche Inc.) was added to each well by 10 μL and incubated for 1, 1.5, and 2 hours to form a formazan dye, and then the absorbance (Abs at 450 nm) of the formazan dye was measured (WST assay). […]

[3] = tested on: MOLT-4 cell line (human acute lymphoblastic leukemia T cell line); assay: Cytotoxicity assay (WST assay), MOLT-4 cell line; format: cell-based; settings: Example 6, 24 h, light chain not bound with copper ions set to 100%
Method: as §1, §2, §3
Meanwhile, in the case of the MOLT-4 cell line, from the time cells were seeded in the 96-well plate, each complex-containing composition prepared at a concentration of about 1 mg/mL was added to each well by 100 μL and cultured for 24 hours or 48 hours, and then WST assay was carried out.

[4] = tested on: B-16 cell line (mouse melanoma-derived cell) subcutaneous tumor; assay: Cytotoxicity assay in tumor-bearing mouse model, B-16 cell line transplanted; format: in vivo; settings: B-16-transplanted mouse; 32.3 μg per mouse injected into subcutaneous tumor, total of 10 times from 4th day; n=2
Method: [Cytotoxicity Assay in Tumor-Bearing Mouse Model]
The cytotoxicity of each complex-containing composition to cancer cells in a tumor-bearing mouse model was tested using tumor-bearing mouse models.
First, the ES-2 cell line (human ovarian cancer-derived cell) or the B-16 cell line (mouse melanoma-derived cell) was subcutaneously transplanted into a mouse to a concentration of 2.5×10^6 cells/mouse. The complex-containing composition was administered against tumors subcutaneously established in the mouse from the 4th day after cancer cell transplantation. The administration of the complex-containing composition was carried out by directly injecting the complex-containing composition into a plurality of sites in the subcutaneous tumor from the outside of the mouse body using a syringe. […]
The volume of the subcutaneous tumor over time was measured from the outside of the mouse body, the volume of the subcutaneous tumor at the 1st day after cancer cell transplantation (next day after transplantation) was set to 1, and the relative tumor volume was determined, so as to evaluate the cytotoxicity of the complex-containing composition to cancer cells in the tumor-bearing mouse model. […]

[5] = tested on: ES-2 cell line (human ovarian cancer cell line); assay: Cytotoxicity assay (WST assay), ES-2 cell line; format: cell-based; settings: Example 6, 24 h, light chain not bound with copper ions set to 100%
Method: as §1, §2, §3

[6] = tested on: BxPC-3 cell line (human pancreatic adenocarcinoma cell line); assay: Cytotoxicity assay (WST assay), BxPC-3 cell line; format: cell-based; settings: Example 6; copper-bound light chain 40 μM; 24 h; light chain not bound with copper ions set to 100%
Method: as §1, §4, §5

[7] = copper-bound light chain 12.3 μM

B1: #4: human antibody κ type light chain, SEQ ID NO. 12; tested bound with copper ions (protein)
light: DVVMTQTPLSLSVTPGEPASISCRSTQSLLDSDGVNPSFDWYVQKPGQSPQLLIHRGFYRASGVPDRFSGSGSGTDFTLRISRVEAEDVGVYYCMQRIEFPLTFGGGTKVELKRTVAAPSVFIFPPSDEQLKSGTASVVCLLNNFYPREAKVQWKVDNALQSGNSQESVTEQDSKDSTYSLSSTLTLSKADYEKHKLYACEVTHQGLSSPVTKSFNRGEC
modifications: bound copper ions; human; Human antibody kappa light chain (#4)
[1]; copper-bound light chain 25.2 μM
  Relative cell survival rate: 81.8%
[1]; copper-bound light chain 34.9 μM
  Relative cell survival rate: 79.1%
[2]; Example 7, Table 5, copper-bound light chain 39.4 μM
  Relative cell survival rate: 29.5%
[3]; copper-bound light chain 4 μM
  Relative cell survival rate: 69.6%
[3]; copper-bound light chain 20 μM
  Relative cell survival rate: 42.3%
[3]; copper-bound light chain 40.4 μM
  Relative cell survival rate: 24.3%
[4]
  Relative tumor volume at 15 days after transplantation, compared to control group (PBS): about ⅓
[5]; copper-bound light chain 20 μM
  Relative cell survival rate: 50.3%

B2: #7VL: mutant of light chain #7, full-length SEQ ID NO. 4; tested bound with copper ions (protein)
light: EIVMTQSPLSLPVTPGEPASISCRSSQSLLHSNTRNYLDWYLQKPGQSPQLLIYLGSNRASGVPDRFSGSGSGTDFTLKISRVEAEDVGVYYCMQGLQTPRTFGQGTKVEIKRTVAAPSVFIFPPSDEQLKSGTASVVCLLNNFYPREAKVQWKVDNALQSGNSQESVTEQDSKDSTYSLSSTLTLSKADYEKHKLYACEVTHQGLSSPVTKSFNRGEC
modifications: bound copper ions; human; Human antibody kappa light chain (#7 VL)
[1]; copper-bound light chain 40 μM
  Relative cell survival rate: 45.9%
[3]; copper-bound light chain 40 μM
  Relative cell survival rate: 29.4%
[5]; copper-bound light chain 40 μM
  Relative cell survival rate: 35.7%

B3: #7RL I: mutant of light chain #7, full-length SEQ ID NO. 10; tested bound with copper ions (protein)
light: B2 light with R101I, K108R, V109L
modifications: bound copper ions; human; Human antibody kappa light chain (#7 RLI)
[1]; copper-bound light chain 40 μM
  Relative cell survival rate: 41.9%
[2]; Example 6, copper-bound light chain 40 μM
  Relative cell survival rate: 52.2%
[6]
  Relative cell survival rate: 77.6%

B4: #7VL(I): mutant of light chain #7, full-length SEQ ID NO. 6; tested bound with copper ions (protein)
light: B2 light with R101I
modifications: bound copper ions; human; Human antibody kappa light chain (#7 VL(I))
[1]; copper-bound light chain 40 μM
  Relative cell survival rate: 79.0%
[3]; copper-bound light chain 40 μM
  Relative cell survival rate: 58.7%
[5]; copper-bound light chain 40 μM
  Relative cell survival rate: 53.7%

B5: #7VL(RL): mutant of light chain #7, full-length SEQ ID NO. 8; tested bound with copper ions (protein)
light: B2 light with K108R, V109L
modifications: bound copper ions; human; Human antibody kappa light chain (#7 VL(RL))
[1]; copper-bound light chain 40 μM
  Relative cell survival rate: 48.0%
[3]; copper-bound light chain 40 μM
  Relative cell survival rate: 32.4%
[5]; copper-bound light chain 40 μM
  Relative cell survival rate: 49.4%

B6: #11: human antibody κ type light chain, SEQ ID NO. 14; tested bound with copper ions (protein)
light: DIVMTQTPLSLSVTPGQPASISCKSSQSLLHSDGKTYLYWYLQKPGQSPQLLLYEVSSRFSGVPDRFSGSGSGTDFTLKISRVEAEDVGVYYCMQGIHLPYTFGQGTKLEIKRTVAAPSVFIFPPSDEQLKSGTASVVCLLNNFYPREAKVQWKVDNALQSGNSQESVTEQDSKDSTYSLSSTLTLSKADYEKHKLYACEVTHQGLSSPVTKSFNRGEC
modifications: bound copper ions; human; Human antibody kappa light chain (#11)
[1]; [7]
  Relative cell survival rate: 73.2%
[1]; copper-bound light chain 20 μM
  Relative cell survival rate: 54.5%
[5]; [7]
  Relative cell survival rate: 58.5%
[5]; copper-bound light chain 20 μM
  Relative cell survival rate: 23.8%
